# Measurements as given in paper PMC10841737 (Biochemistry, 2023).
# Where two headings read alike, the source gives them in different places.
# T1: Cdc13 (Saccharomyces cerevisiae, UniProt P32797 1-924)
# T1 sequence: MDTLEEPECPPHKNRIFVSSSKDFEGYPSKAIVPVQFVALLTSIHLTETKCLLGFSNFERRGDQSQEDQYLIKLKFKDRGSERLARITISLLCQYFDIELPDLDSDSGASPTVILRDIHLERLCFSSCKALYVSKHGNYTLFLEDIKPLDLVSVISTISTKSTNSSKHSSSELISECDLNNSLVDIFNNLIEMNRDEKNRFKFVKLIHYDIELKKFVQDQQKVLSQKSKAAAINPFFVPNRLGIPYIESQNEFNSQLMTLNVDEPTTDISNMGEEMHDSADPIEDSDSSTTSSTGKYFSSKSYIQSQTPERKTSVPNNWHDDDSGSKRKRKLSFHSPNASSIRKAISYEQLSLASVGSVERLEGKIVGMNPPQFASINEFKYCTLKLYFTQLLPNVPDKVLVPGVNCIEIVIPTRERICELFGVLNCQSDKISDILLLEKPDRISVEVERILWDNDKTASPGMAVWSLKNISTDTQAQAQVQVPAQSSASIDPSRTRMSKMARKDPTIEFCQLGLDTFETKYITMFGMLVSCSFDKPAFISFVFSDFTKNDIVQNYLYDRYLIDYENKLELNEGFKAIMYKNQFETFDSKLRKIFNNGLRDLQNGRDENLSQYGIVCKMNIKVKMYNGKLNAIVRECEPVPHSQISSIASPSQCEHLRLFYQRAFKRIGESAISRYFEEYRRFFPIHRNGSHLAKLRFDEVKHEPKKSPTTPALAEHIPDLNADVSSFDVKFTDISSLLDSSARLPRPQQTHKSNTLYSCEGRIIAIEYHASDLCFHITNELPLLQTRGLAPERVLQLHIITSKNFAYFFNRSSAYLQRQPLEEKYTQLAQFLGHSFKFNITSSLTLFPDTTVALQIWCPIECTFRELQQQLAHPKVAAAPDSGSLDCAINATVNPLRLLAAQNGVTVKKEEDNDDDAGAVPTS
# T2: Cy5-Sub1 (Sub1-Cys) (Saccharomyces cerevisiae, UniProt P54000 1-292+=C, internal_change)
# T2 sequence: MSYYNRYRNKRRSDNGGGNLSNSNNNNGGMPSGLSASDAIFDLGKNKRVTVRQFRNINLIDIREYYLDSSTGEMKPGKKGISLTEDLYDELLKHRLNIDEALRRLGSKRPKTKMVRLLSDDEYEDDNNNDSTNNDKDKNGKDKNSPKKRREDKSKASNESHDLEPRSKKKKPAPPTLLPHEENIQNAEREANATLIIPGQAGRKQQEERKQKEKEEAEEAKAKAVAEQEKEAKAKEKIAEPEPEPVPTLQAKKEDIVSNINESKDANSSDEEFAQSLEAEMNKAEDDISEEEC
# T3: Sub1 (Saccharomyces cerevisiae, UniProt P54000 1-292)
# T3 sequence: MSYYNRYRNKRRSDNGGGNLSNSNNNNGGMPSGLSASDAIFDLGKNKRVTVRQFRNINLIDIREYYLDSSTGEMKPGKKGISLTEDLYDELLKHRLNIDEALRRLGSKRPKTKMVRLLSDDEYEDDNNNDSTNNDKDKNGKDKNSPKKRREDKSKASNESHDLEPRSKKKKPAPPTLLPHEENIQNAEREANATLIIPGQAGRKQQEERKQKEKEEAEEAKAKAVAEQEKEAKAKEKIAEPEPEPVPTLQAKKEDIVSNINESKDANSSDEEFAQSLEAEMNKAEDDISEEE
# T4: S. cerevisiae Pif1 helicase (S. cerevisiae, UniProt P07271 46-859)
# T4 sequence (looked up): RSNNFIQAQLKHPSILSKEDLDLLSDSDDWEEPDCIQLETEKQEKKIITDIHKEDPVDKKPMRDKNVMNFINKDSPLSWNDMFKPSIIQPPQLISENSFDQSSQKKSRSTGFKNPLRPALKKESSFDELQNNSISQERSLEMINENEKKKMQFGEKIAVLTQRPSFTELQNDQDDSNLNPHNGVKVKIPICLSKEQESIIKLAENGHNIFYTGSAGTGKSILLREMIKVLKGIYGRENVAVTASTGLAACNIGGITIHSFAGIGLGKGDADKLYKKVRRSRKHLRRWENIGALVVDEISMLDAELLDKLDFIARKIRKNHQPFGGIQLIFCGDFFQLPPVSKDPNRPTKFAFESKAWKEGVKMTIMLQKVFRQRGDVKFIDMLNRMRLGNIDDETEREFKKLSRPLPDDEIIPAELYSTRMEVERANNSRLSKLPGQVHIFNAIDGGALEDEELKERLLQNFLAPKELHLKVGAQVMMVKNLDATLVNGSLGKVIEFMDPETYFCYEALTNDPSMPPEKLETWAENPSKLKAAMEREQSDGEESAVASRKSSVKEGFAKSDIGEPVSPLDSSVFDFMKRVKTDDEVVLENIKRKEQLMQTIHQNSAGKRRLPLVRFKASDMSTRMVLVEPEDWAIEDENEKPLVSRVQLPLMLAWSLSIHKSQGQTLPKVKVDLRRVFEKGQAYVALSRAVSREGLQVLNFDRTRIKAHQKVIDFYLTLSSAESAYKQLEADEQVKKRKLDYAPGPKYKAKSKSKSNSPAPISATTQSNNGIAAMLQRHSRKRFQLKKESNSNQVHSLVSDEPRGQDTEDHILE
# B1: Cy5-labeled Sub1 (Sub1-Cys variant labeled with Cy5-maleimide) (natural protein, yeast (S. cerevisiae), UniProt P54000 1-292, looked up)
# chain: T2 sequence
# modifications: Cy5 (maleimide) on the cysteine added at the C-terminal end; one molecule of Cy5 dye per protein
# Tests used:
# [1] = biological target: T1, Cdc13; assay: EMSA
# [2] = biological target: T2, Cy5-Sub1 (Sub1-Cys); assay: stopped-flow FRET dissociation
# [3] = biological target: T1, Cdc13; assay: EMSA; remark: listed apart in the source
# [4] = biological target: T3, Sub1; assay: filter binding
# [5] = biological target: T2, Cy5-Sub1 (Sub1-Cys); assay: filter binding
# [6] = biological target: T1, Cdc13; assay: EMSA; remark: listed apart in the source
# [7] = biological target: T4, S. cerevisiae Pif1 helicase; assay: fluorescence polarisation
# [8] = biological target: T1, Cdc13; assay: EMSA; remark: listed apart in the source
binder,measurement,setting,value
CTGTGGGTGTG (ssDNA) [Tel11 (G1C)],apparent K (half saturation),[1],150 ± 14.7 nM
TTTTTTTTTTTTTTGAGGGTGGGTAGGGTGGGT (structured_DNA) [Cy3-G4 DNA],binding result,[2],binds
GTGTGGGTGTG (ssDNA) [Tel11 telomere seq],apparent K (half saturation),[3],15.3 ± 0.9 nM
TTTTTTTTTTTTTTTGAGGGTGGGTAGGGTGGGTAA (structured_DNA) [G4DNA],Kd,[4],0.86 ± 0.18 nM
same,Kd,[5],2.9 ± 1.3 nM
GTGTGGCTCTG (ssDNA) [Tel11 (G7C/G9C)],apparent K (half saturation),[6],96.7 ± 3 nM
B1,Kd,[7],53 nM
CGCTGATGTCGC (ssDNA) [12 nt Mixed seq],apparent K (half saturation),[8],124 ± 8.8 nM
